Laboratory results as given in publication PMC5286426, “The Calcium-Dependent Switch Helix of L-Plastin Regulates Actin Bundling” (Scientific Reports, 2017).
“Also recorded” adds a separate entry of the source.

Key:
actin [1] = conditions: compared to the non-phosphorylated LPL protein; cited from earlier work
Excerpt: In addition to the Ca^2+ switch, the targeting of LPL to the actin cytoskeleton is also regulated by the phosphorylation of Ser5[41]. Among all three human plastin isoforms, LPL is the only isoform that is currently known to be phosporylated in vivo[40]. Unlike other actin-binding proteins, where phosphorylation usually occurs in the actin-binding domain, LPL phosphorylation seems to take place on the regulatory Ca^2+-binding domain. […] They hypothesized ...

[2] = cited from earlier work
Excerpt: L-plastin (LPL) is a 70 kDa Ca^2+- and actin-binding protein that plays an important role in both the adaptive and innate immune system. Among the three isoforms found in humans (L-, T-, and I-plastin), LPL is exclusively expressed in cells of hematopoietic origin, where it can act as an actin cross-linker by promoting actin bundling. The actin-bundling activity of LPL is known to be calcium-dependent, where increasing calcium concentrations inhibit the formation of actin-bundles[9][10].

CaM = conditions: CaM-pull down; cited from earlier work
Excerpt: The H5 region of LPL was previously predicted as a potential binding site for CaM[48]. Indeed this sequence produced a high theoretically predicted score for CaM binding. […] Therefore, we have tested the interaction between EF-H5 and CaM in the presence of EDTA. However, ...

[3] = tested on: Human platelet actin (F-actin); assay: Actin-bundling assay, low-speed centrifugation and SDS-PAGE; assay type: biochemical; conditions: 6 µM F-actin, n = 3 (Fig. 4a); for Amount of actin found in the pellet: 3 µM LPL construct, pH 7.5, room temperature, 1 h; for Amount of LPL found in the pellet: 3 µM LPL
Protocol: Human platelet actin (Cytoskeleton) was dissolved in 2 mM Tris pH7.5, 0.2 mM CaCl2, 0.2 mM ATP, and 0.5 mM DTT (Buffer G). The actin was then polymerized overnight at 4 °C in 20 mM Tris pH 7.5, 100 mM KCl, and 1 mM MgCl2. Spontaneously bundled F-actin was removed by centrifugation at 12,000 g for 15 min prior to the assay. F-actin and LPL constructs were incubated at room temperature for 1 h in 50 uL of the buffer containing 20 mM Tris pH7.5, 100 mM KCl, 1 mM MgCl2, 6 µM F-actin, 3 µM LPL construct, 0.1 mM CaCl2, 0.1 mM ATP with and without 5 mM EGTA. LPL induced actin bundles were sedimented by centrifugation at 12,000 g for 15 min and the supernatant was carefully removed. The amount of actin and/or LPL construct in the pellet was analyzed by SDS-PAGE. The effect of the presence of 12 µM melittin peptide on actin-bundling was also examined.

actin [4] = conditions: in vitro; cited from earlier work
Excerpt: LPL is comprised of two N-terminal EF-hand motifs (head-piece domain), which are homologous to a single domain of calmodulin (CaM) (34.7% identical), followed by two actin-binding domains (ABDs)[5]. Each ABD consists of two independently folded calponin homology (CH) domains. While many signaling and cytoskeletal proteins share these CH domains, plastins are the only known proteins to have two tandem ABDs[31][32][33]. The four CH domains are each folded into a compact globular shape where the ABD1 and ABD2 are arranged back-to-back[34][35]. Each ABD can bind an actin-filament, thereby LPL ... || In order to further investigate the role of H5 in the Ca^2+-dependent actin-bundling of LPL, we have performed actin-bundling assays with a series of different LPL constructs (Fig. 4).

B1: S5E mutant: LPL S5E mutant of Janji and coworkers (protein, UniProt P13796 2-627, looked up, variant S5E)
Plastin-2: ARGEVSDEEMMELREAFAKVDTDGNGYISFNELNDLFKAACLPLPGYRVREITENLMATGDLDQDGRISFDEFIKIFHGLKSTDVAKTFRKAINKKEGICAIGGTSEQSSVGTQHSYSEEEKYAFVNWINKALENDPDCRHVIPMNPNTNDLFNAVGDGIVLCKMINLSVPDTIDERTINKKKLTPFTIQENLNLALNSASAIGCHVVNIGAEDLKEGKPYLVLGLLWQVIKIGLFADIELSRNEALIALLREGESLEDLMKLSPEELLLRWANYHLENAGCNKIGNFSTDIKDSKAYYHLLEQVAPKGDEEGVPAVVIDMSGLREKDDIQRAECMLQQAERLGCRQFVTATDVVRGNPKLNLAFIANLFNRYPALHKPENQDIDWGALEGETREERTFRNWMNSLGVNPRVNHLYSDLSDALVIFQLYEKIKVPVDWNRVNKPPYPKLGGNMKKLENCNYAVELGKNQAKFSLVGIGGQDLNEGNRTLTLALIWQLMRRYTLNILEEIGGGQKVNDDIIVNWVNETLREAKKSSSISSFKDPKISTSLPVLDLIDAIQPGSINYDLLKTENLNDDEKLNNAKYAISMARKIGARVYALPEDLVEVNPKMVMTVFACLMGKGMKRV
**Q.** With B1 as the molecule, how does the Actin bundling activity (actin [1]) read?
**A.** increased actin bundling activity

B2: LPL: 70 kDa Ca^2+- and actin-binding protein, full-length human L-plastin (protein)
chain: MARGSVSDEEMMELREAFAKVDTDGNGYISFNELNDLFKAACLPLPGYRVREITENLMATGDLDQDGRISFDEFIKIFHGLKSTDVAKTFRKAINKKEGICAIGGTSEQSSVGTQHSYSEEEKYAFVNWINKALENDPDCRHVIPMNPNTNDLFNAVGDGIVLCKMINLSVPDTIDERTINKKKLTPFTIQENLNLALNSASAIGCHVVNIGAEDLKEGKPYLVLGLLWQVIKIGLFADIELSRNEALIALLREGESLEDLMKLSPEELLLRWANYHLENAGCNKIGNFSTDIKDSKAYYHLLEQVAPKGDEEGVPAVVIDMSGLREKDDIQRAECMLQQAERLGCRQFVTATDVVRGNPKLNLAFIANLFNRYPALHKPENQDIDWGALEGETREERTFRNWMNSLGVNPRVNHLYSDLSDALVIFQLYEKIKVPVDWNRVNKPPYPKLGGNMKKLENCNYAVELGKNQAKFSLVGIGGQDLNEGNRTLTLALIWQLMRRYTLNILEEIGGGQKVNDDIIVNWVNETLREAKKSSSISSFKDPKISTSLPVLDLIDAIQPGSINYDLLKTENLNDDEKLNNAKYAISMARKIGARVYALPEDLVEVNPKMVMTVFACLMGKGMKRV
modifications: left off: GST, end not stated, cleaved
**Q.** With B2 as the molecule, how does the “Sensitivity to intracellular Ca^2+-signals” value [2] read?
**A.** optimal Ca^2+-binding affinity to respond to intracellular Ca^2+-signals

**Q.** And the “Direct binding to CaM” value (CaM)?
**A.** only seen in the absence of Ca^2+

**Q.** What about the “Amount of actin found in the pellet” value ([3]; in the presence of Ca^2+ (0.1 mM CaCl2)) of the same molecule?
**A.** ~ 50%

**Q.** What about the “Amount of actin found in the pellet” value ([3]; in the presence of EGTA, 5 mM EGTA) of the same molecule?
**A.** ~ 90%

**Q.** And the “Amount of LPL found in the pellet” value ([3]; with Ca^2+)?
**A.** ~ 50%

**Q.** What about the “Amount of LPL found in the pellet” value ([3]; with EGTA) of the same molecule?
**A.** ~ 70%

B3: ABD1: actin-binding domain 1 of LPL (residues 113–379) (protein, UniProt P13796 113-379, looked up, fragment)
chain: GTQHSYSEEEKYAFVNWINKALENDPDCRHVIPMNPNTNDLFNAVGDGIVLCKMINLSVPDTIDERTINKKKLTPFTIQENLNLALNSASAIGCHVVNIGAEDLKEGKPYLVLGLLWQVIKIGLFADIELSRNEALIALLREGESLEDLMKLSPEELLLRWANYHLENAGCNKIGNFSTDIKDSKAYYHLLEQVAPKGDEEGVPAVVIDMSGLREKDDIQRAECMLQQAERLGCRQFVTATDVVRGNPKLNLAFIANLFNRYPALHK
modifications: actin-binding domain 1
**Q.** For B3, which “Actin binding of ABD1 relative to ABD2” value (actin [4]) is on record?
**A.** an order of magnitude stronger than ABD2; also recorded: ten times stronger than ABD2

B4: T-plastin: plastin isoform from solid tissues, such as fibroblasts and epithelial cells (protein, UniProt P13797 1-630, looked up)
Plastin-3: MDEMATTQISKDELDELKEAFAKVDLNSNGFICDYELHELFKEANMPLPGYKVREIIQKLMLDGDRNKDGKISFDEFVYIFQEVKSSDIAKTFRKAINRKEGICALGGTSELSSEGTQHSYSEEEKYAFVNWINKALENDPDCRHVIPMNPNTDDLFKAVGDGIVLCKMINLSVPDTIDERAINKKKLTPFIIQENLNLALNSASAIGCHVVNIGAEDLRAGKPHLVLGLLWQIIKIGLFADIELSRNEALAALLRDGETLEELMKLSPEELLLRWANFHLENSGWQKINNFSADIKDSKAYFHLLNQIAPKGQKEGEPRIDINMSGFNETDDLKRAESMLQQADKLGCRQFVTPADVVSGNPKLNLAFVANLFNKYPALTKPENQDIDWTLLEGETREERTFRNWMNSLGVNPHVNHLYADLQDALVILQLYERIKVPVDWSKVNKPPYPKLGANMKKLENCNYAVELGKHPAKFSLVGIGGQDLNDGNQTLTLALVWQLMRRYTLNVLEDLGDGQKANDDIIVNWVNRTLSEAGKSTSIQSFKDKTISSSLAVVDLIDAIQPGCINYDLVKSGNLTEDDKHNNAKYAVSMARRIGARVYALPEDLVEVKPKMVMTVFACLMGRGMKRV
**Q.** For B4, which “Sensitivity to intracellular Ca^2+-signals” value [2] is on record?
**A.** relatively insensitive
